Numbered stars: 1 amine (or outer) side, 2 acyl side, 3 side chain; on linkers, the order of the positions; unused ones are H or OH. Bridge positions count the residues as written; N and C are the ends. Side chains are listed from the residue outwards. Ends that are not written are not given here. * marks the point of attachment. C20 diacid = O=C(O)CCCCCCCCCCCCCCCCCCC(=O)*; γGlu = O=C(O)[C@H](CCC(=O)[*:2])N[*:1]; AEEA = NCCOCCOCC(=O)O
T1: rat calcitonin receptor (rat, UniProt P32214 25-516)
T1 construct: whole, on cells; Used as membranes prepared from the transfected cells; also called rCTR; rCT
T1 sequence (looked up): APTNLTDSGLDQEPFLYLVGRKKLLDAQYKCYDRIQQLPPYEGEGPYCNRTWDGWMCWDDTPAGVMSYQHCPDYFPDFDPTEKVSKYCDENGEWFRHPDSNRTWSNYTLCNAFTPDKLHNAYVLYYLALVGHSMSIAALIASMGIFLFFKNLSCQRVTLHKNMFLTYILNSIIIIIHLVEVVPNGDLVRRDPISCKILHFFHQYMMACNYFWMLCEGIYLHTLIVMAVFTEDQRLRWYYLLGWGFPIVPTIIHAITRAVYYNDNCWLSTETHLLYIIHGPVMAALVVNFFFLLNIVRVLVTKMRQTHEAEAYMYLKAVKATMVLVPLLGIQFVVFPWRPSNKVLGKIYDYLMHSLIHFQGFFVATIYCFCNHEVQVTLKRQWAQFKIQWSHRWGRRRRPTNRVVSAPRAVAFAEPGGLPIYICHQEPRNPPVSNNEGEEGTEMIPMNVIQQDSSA

T2: human calcitonin receptor (human, UniProt P30988 25-474)
T2 construct: whole, on cells; Used as membranes prepared from the transfected cells; also called hCTR; hCT
T2 sequence (looked up): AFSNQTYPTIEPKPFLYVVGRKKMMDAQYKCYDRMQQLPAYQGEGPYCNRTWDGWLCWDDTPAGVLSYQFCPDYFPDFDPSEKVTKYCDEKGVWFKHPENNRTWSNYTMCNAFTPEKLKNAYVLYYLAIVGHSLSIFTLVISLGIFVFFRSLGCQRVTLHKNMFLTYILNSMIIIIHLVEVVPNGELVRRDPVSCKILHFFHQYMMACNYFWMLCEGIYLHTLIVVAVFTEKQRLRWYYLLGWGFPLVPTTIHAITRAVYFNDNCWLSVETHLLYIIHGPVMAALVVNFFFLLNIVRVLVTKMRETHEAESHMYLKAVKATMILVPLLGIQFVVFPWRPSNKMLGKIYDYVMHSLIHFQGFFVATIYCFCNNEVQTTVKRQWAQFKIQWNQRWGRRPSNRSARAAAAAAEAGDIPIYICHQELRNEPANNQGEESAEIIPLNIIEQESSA

B1: N^ε1-[2-[2-[2-[[(4S)-4-carboxy-4-(19-carboxynonadecanoylamino)butanoyl]amino]ethoxy]ethoxy]acetyl]-[His14,Arg17,Pro21,Pro27,His34]-h-amylin (peptide)
peptide: K([AEEA-γGlu-C20 diacid])CNTATCATQRLAHFLRHSSPNFGAIPSSTNVGHNTY-NH2
modifications: disulfide 2-7; N-terminus assumed
SMILES: CC[C@H](C)[C@H](NC(=O)[C@H](C)NC(=O)CNC(=O)[C@H](Cc1ccccc1)NC(=O)[C@H](CC(N)=O)NC(=O)[C@@H]1CCCN1C(=O)[C@H](CO)NC(=O)[C@H](CO)NC(=O)[C@H](Cc1c[nH]cn1)NC(=O)[C@H](CCCNC(=N)N)NC(=O)[C@H](CC(C)C)NC(=O)[C@H](Cc1ccccc1)NC(=O)[C@H](Cc1c[nH]cn1)NC(=O)[C@H](C)NC(=O)[C@H](CC(C)C)NC(=O)[C@H](CCCNC(=N)N)NC(=O)[C@H](CCC(N)=O)NC(=O)[C@@H](NC(=O)[C@H](C)NC(=O)[C@@H]1CSSC[C@H](NC(=O)[C@@H](N)CCCCNC(=O)COCCOCCNC(=O)CC[C@H](NC(=O)CCCCCCCCCCCCCCCCCCC(=O)O)C(=O)O)C(=O)N[C@@H](CC(N)=O)C(=O)N[C@@H]([C@@H](C)O)C(=O)N[C@@H](C)C(=O)N[C@@H]([C@@H](C)O)C(=O)N1)[C@@H](C)O)C(=O)N1CCC[C@H]1C(=O)N[C@@H](CO)C(=O)N[C@@H](CO)C(=O)N[C@H](C(=O)N[C@@H](CC(N)=O)C(=O)N[C@H](C(=O)NCC(=O)N[C@@H](Cc1c[nH]cn1)C(=O)N[C@@H](CC(N)=O)C(=O)N[C@H](C(=O)N[C@@H](Cc1ccc(O)cc1)C(N)=O)[C@@H](C)O)C(C)C)[C@@H](C)O
notes: Analogue of human amylin; disulfide and C-terminal amide as told for h-amylin; also called compound 80
B2: N^ε1-[2-[2-[2-[[(4S)-4-carboxy-4-(19-carboxynonadecanoylamino)butanoyl]amino]ethoxy]ethoxy]acetyl]-[Thr14,Arg17,Pro21,Pro27,Pro31]-h-amylin (peptide)
peptide: K([AEEA-γGlu-C20 diacid])CNTATCATQRLATFLRHSSPNFGAIPSSTPVGSNTY-NH2
modifications: disulfide 2-7; N-terminus assumed
SMILES: CC[C@H](C)[C@H](NC(=O)[C@H](C)NC(=O)CNC(=O)[C@H](Cc1ccccc1)NC(=O)[C@H](CC(N)=O)NC(=O)[C@@H]1CCCN1C(=O)[C@H](CO)NC(=O)[C@H](CO)NC(=O)[C@H](Cc1c[nH]cn1)NC(=O)[C@H](CCCNC(=N)N)NC(=O)[C@H](CC(C)C)NC(=O)[C@H](Cc1ccccc1)NC(=O)[C@@H](NC(=O)[C@H](C)NC(=O)[C@H](CC(C)C)NC(=O)[C@H](CCCNC(=N)N)NC(=O)[C@H](CCC(N)=O)NC(=O)[C@@H](NC(=O)[C@H](C)NC(=O)[C@@H]1CSSC[C@H](NC(=O)[C@@H](N)CCCCNC(=O)COCCOCCNC(=O)CC[C@H](NC(=O)CCCCCCCCCCCCCCCCCCC(=O)O)C(=O)O)C(=O)N[C@@H](CC(N)=O)C(=O)N[C@@H]([C@@H](C)O)C(=O)N[C@@H](C)C(=O)N[C@@H]([C@@H](C)O)C(=O)N1)[C@@H](C)O)[C@@H](C)O)C(=O)N1CCC[C@H]1C(=O)N[C@@H](CO)C(=O)N[C@@H](CO)C(=O)N[C@H](C(=O)N1CCC[C@H]1C(=O)N[C@H](C(=O)NCC(=O)N[C@@H](CO)C(=O)N[C@@H](CC(N)=O)C(=O)N[C@H](C(=O)N[C@@H](Cc1ccc(O)cc1)C(N)=O)[C@@H](C)O)C(C)C)[C@@H](C)O
notes: Analogue of human amylin; disulfide and C-terminal amide as told for h-amylin; also called compound 75
B3: N^ε1-[2-[2-[2-[[(4S)-4-carboxy-4-(19-carboxynonadecanoylamino)butanoyl]amino]ethoxy]ethoxy]acetyl]-[His14,Arg17,Pro21,Pro27,Pro34]-h-amylin (peptide)
peptide: K([AEEA-γGlu-C20 diacid])CNTATCATQRLAHFLRHSSPNFGAIPSSTNVGPNTY-NH2
modifications: disulfide 2-7; N-terminus assumed
SMILES: CC[C@H](C)[C@H](NC(=O)[C@H](C)NC(=O)CNC(=O)[C@H](Cc1ccccc1)NC(=O)[C@H](CC(N)=O)NC(=O)[C@@H]1CCCN1C(=O)[C@H](CO)NC(=O)[C@H](CO)NC(=O)[C@H](Cc1c[nH]cn1)NC(=O)[C@H](CCCNC(=N)N)NC(=O)[C@H](CC(C)C)NC(=O)[C@H](Cc1ccccc1)NC(=O)[C@H](Cc1c[nH]cn1)NC(=O)[C@H](C)NC(=O)[C@H](CC(C)C)NC(=O)[C@H](CCCNC(=N)N)NC(=O)[C@H](CCC(N)=O)NC(=O)[C@@H](NC(=O)[C@H](C)NC(=O)[C@@H]1CSSC[C@H](NC(=O)[C@@H](N)CCCCNC(=O)COCCOCCNC(=O)CC[C@H](NC(=O)CCCCCCCCCCCCCCCCCCC(=O)O)C(=O)O)C(=O)N[C@@H](CC(N)=O)C(=O)N[C@@H]([C@@H](C)O)C(=O)N[C@@H](C)C(=O)N[C@@H]([C@@H](C)O)C(=O)N1)[C@@H](C)O)C(=O)N1CCC[C@H]1C(=O)N[C@@H](CO)C(=O)N[C@@H](CO)C(=O)N[C@H](C(=O)N[C@@H](CC(N)=O)C(=O)N[C@H](C(=O)NCC(=O)N1CCC[C@H]1C(=O)N[C@@H](CC(N)=O)C(=O)N[C@H](C(=O)N[C@@H](Cc1ccc(O)cc1)C(N)=O)[C@@H](C)O)C(C)C)[C@@H](C)O
notes: Analogue of human amylin; disulfide and C-terminal amide as told for h-amylin; also called compound 68
B4: N^ε1-[2-[2-[2-[[(4S)-4-carboxy-4-(19-carboxynonadecanoylamino)butanoyl]amino]ethoxy]ethoxy]acetyl]-[Ser14,Arg17,Pro21,Pro27,Pro31]-h-amylin (peptide)
peptide: K([AEEA-γGlu-C20 diacid])CNTATCATQRLASFLRHSSPNFGAIPSSTPVGSNTY-NH2
modifications: disulfide 2-7; N-terminus assumed
SMILES: CC[C@H](C)[C@H](NC(=O)[C@H](C)NC(=O)CNC(=O)[C@H](Cc1ccccc1)NC(=O)[C@H](CC(N)=O)NC(=O)[C@@H]1CCCN1C(=O)[C@H](CO)NC(=O)[C@H](CO)NC(=O)[C@H](Cc1c[nH]cn1)NC(=O)[C@H](CCCNC(=N)N)NC(=O)[C@H](CC(C)C)NC(=O)[C@H](Cc1ccccc1)NC(=O)[C@H](CO)NC(=O)[C@H](C)NC(=O)[C@H](CC(C)C)NC(=O)[C@H](CCCNC(=N)N)NC(=O)[C@H](CCC(N)=O)NC(=O)[C@@H](NC(=O)[C@H](C)NC(=O)[C@@H]1CSSC[C@H](NC(=O)[C@@H](N)CCCCNC(=O)COCCOCCNC(=O)CC[C@H](NC(=O)CCCCCCCCCCCCCCCCCCC(=O)O)C(=O)O)C(=O)N[C@@H](CC(N)=O)C(=O)N[C@@H]([C@@H](C)O)C(=O)N[C@@H](C)C(=O)N[C@@H]([C@@H](C)O)C(=O)N1)[C@@H](C)O)C(=O)N1CCC[C@H]1C(=O)N[C@@H](CO)C(=O)N[C@@H](CO)C(=O)N[C@H](C(=O)N1CCC[C@H]1C(=O)N[C@H](C(=O)NCC(=O)N[C@@H](CO)C(=O)N[C@@H](CC(N)=O)C(=O)N[C@H](C(=O)N[C@@H](Cc1ccc(O)cc1)C(N)=O)[C@@H](C)O)C(C)C)[C@@H](C)O
notes: Analogue of human amylin; disulfide and C-terminal amide as told for h-amylin; also called compound 73
B5: N^ε1-[2-[2-[2-[[(4S)-4-carboxy-4-(19-carboxynonadecanoylamino)butanoyl]amino]ethoxy]ethoxy]acetyl]-[Lys14,Arg17,Pro21,Pro27,Pro31]-h-amylin (peptide)
peptide: K([AEEA-γGlu-C20 diacid])CNTATCATQRLAKFLRHSSPNFGAIPSSTPVGSNTY-NH2
modifications: disulfide 2-7; N-terminus assumed
SMILES: CC[C@H](C)[C@H](NC(=O)[C@H](C)NC(=O)CNC(=O)[C@H](Cc1ccccc1)NC(=O)[C@H](CC(N)=O)NC(=O)[C@@H]1CCCN1C(=O)[C@H](CO)NC(=O)[C@H](CO)NC(=O)[C@H](Cc1c[nH]cn1)NC(=O)[C@H](CCCNC(=N)N)NC(=O)[C@H](CC(C)C)NC(=O)[C@H](Cc1ccccc1)NC(=O)[C@H](CCCCN)NC(=O)[C@H](C)NC(=O)[C@H](CC(C)C)NC(=O)[C@H](CCCNC(=N)N)NC(=O)[C@H](CCC(N)=O)NC(=O)[C@@H](NC(=O)[C@H](C)NC(=O)[C@@H]1CSSC[C@H](NC(=O)[C@@H](N)CCCCNC(=O)COCCOCCNC(=O)CC[C@H](NC(=O)CCCCCCCCCCCCCCCCCCC(=O)O)C(=O)O)C(=O)N[C@@H](CC(N)=O)C(=O)N[C@@H]([C@@H](C)O)C(=O)N[C@@H](C)C(=O)N[C@@H]([C@@H](C)O)C(=O)N1)[C@@H](C)O)C(=O)N1CCC[C@H]1C(=O)N[C@@H](CO)C(=O)N[C@@H](CO)C(=O)N[C@H](C(=O)N1CCC[C@H]1C(=O)N[C@H](C(=O)NCC(=O)N[C@@H](CO)C(=O)N[C@@H](CC(N)=O)C(=O)N[C@H](C(=O)N[C@@H](Cc1ccc(O)cc1)C(N)=O)[C@@H](C)O)C(C)C)[C@@H](C)O
notes: Analogue of human amylin; disulfide and C-terminal amide as told for h-amylin; Acylation site is 1K, not Lys14; also called compound 74

How the values were obtained:
rat calcitonin receptor [1] = molecular target: T1, rat calcitonin receptor; test: SPA competition with 125I-calcitonin, membranes with rat calcitonin receptor (Assay VIII)
[2] = molecular target: T2, human calcitonin receptor; test: ratio of binding IC50 at human calcitonin receptor to IC50 at human amylin receptor (reference)
Outline: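 IC₅₀ values were derived by one-site competition analysis of SPA counts. Cell membranes (35 ng/μL) with SPA beads were incubated with test compounds for 120 min at 25° C in Hepes buffer, pH 7.4, containing CaCl2, MgCl₂, OA and Tween20.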

rat calcitonin receptor [3] = molecular target: T1, rat calcitonin receptor; test: ratio of binding IC50 at rat calcitonin receptor to IC50 at rat amylin receptor (reference)

Row | Binder | IC50 (rat calcitonin receptor [1]) [nM] | Ratio hCT/hAmylin binding [2] | Ratio rCT/rAmylin binding (rat calcitonin receptor [3])
1 | B1 | 60.4 | 68.1 | 36.2
2 | B2 | 442 | 91.4 | 110
3 | B3 | 28.5 | 64.4 | 122
4 | B4 | 50.3 | 51.7 | 178
5 | B5 | 109 | 101 | 22.3
